Target: T1, rhIL-23 (human, UniProt Q9NPF7 20-189; P29460 23-328)
T1 construct: Recombinant human IL-23 coated on immunoassay plates; also called IL-23 ligand
T1 sequence (looked up) 1: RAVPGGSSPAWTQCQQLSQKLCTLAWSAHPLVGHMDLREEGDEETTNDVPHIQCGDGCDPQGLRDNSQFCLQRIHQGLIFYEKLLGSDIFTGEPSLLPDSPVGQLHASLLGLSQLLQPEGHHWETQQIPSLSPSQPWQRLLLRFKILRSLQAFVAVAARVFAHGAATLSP
T1 sequence (looked up) 2: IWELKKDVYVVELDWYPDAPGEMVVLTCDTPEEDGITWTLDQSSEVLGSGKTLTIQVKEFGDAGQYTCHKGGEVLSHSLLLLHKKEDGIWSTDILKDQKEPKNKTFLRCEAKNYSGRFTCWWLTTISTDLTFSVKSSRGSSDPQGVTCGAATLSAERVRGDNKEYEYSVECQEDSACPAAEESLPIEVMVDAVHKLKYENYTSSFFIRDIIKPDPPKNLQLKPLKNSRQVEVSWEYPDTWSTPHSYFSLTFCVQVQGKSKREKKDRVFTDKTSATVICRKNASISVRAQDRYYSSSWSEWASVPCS
Experiment: ELISA, ligand coated on plate, conditioned medium with soluble receptor
Method: Ligand Binding Assays: Conditioned media containing […] were generated in transfected or virally-infected 293 cells. Receptor concentrations in collected media were determined by ELISA and Western blot. Ligand binding assays were performed on immunoassay plates coated with target ligand rhIL-17 or rhIL-23. Typically conditioned media containing serial dilutions of soluble receptor were incubated with immobilized ligand 1-2 hours at room temperature. Unbound ligand was washed away and bound protein was detected and quantified with receptor-specific detection antibodies, as is performed in an ELISA.
In order to test the ability of the soluble IL-17 and IL-23 receptor fusions to bind to their respective ligands, the following experiments were conducted. In one experiment, the ability of the soluble receptors to bind immobilized ligands was explored. Conditioned media for each receptor was generated from Ad-infected A459 cells and quantified by ELISA as described. Binding was measured on ELISA plates pre-coated with IL-23 or IL-17 ligand. Relative binding was compared to purchased receptor/Fc chimeras (R&D Systems, Minneapolis, Minn.). The control IL-17R/Fc from R&D contains human IL-17R(Met1-Trp320) fused to IEGRMD and human IgG1(Pro100-Lys330). […]

B1: sIL23R-9gly-CH3 (Fc fusion)
chain: GITNINCSGHIWVEPATIFKMGMNISIYCQAAIKNCQPRKLHFYKNGIKERFQITRINKTTARLWYKNFLEPHASMYCTAECPKHFQETLICGKDISSGYPPDIPDEVTCVIYEYSGNMTCTWNAGKLTYIDTKYVVHVKSLETEEEQQYLTSSYINISTDSLQGGKKYLVWVQAANALGMEESKQLQIHLDDIVIPSAAVISRAETINATVPKTIIYWDSQTTIEKVSCEMRYKATTNQTWNVKEFDTNFTYVQQSEFYLEPNIKYVFQVRCQETGKRYWQPWSSPFFHKTPETVPQVTSKAFQHDTWNSGLTVASISTGHLTGGGGGGGGGQPREPQVYTLPPSRDELTKNQVSLTCLVKGFYPSDIAVEWESNGQPENNYKTTPPVLDSDGSFFLYSKLTVDKSRWQQGNVFSCSVMHEALHNHYTQKSLSLSPGK
notes: Fusion to the CH3 domain of human IgG1 only, with no hinge or CH2; It was tested as conditioned medium from adenovirus-infected cells; also called hIL-23R-9gly-CH3 chimera; soluble IL-23r
binding result: binds

Reference: US20110052585A1 (Sanofi, published 2011)
